Data set [1] deals with Type I-F Cascade (Cas8f, Cas5f, His-Cas7f, Cas6f, crRNA) (Shewanella baltica OS195). In words: BLI. For orientation: BLI is a label-free optical method that tracks binding on a fibre tip over time.
Data set [2] has as its system Type I-Fv Cascade (Cas5fv, His-Cas7fv, Cas6f, crRNA spacer4) (Shewanella putrefaciens CN-32). In words: BLI. The settings on record: BLI buffer: SEC buffer (composition in Supplementary Table II, not in material) + 0.1 uM BSA + 0.01% Triton X-100, 100 nM biotinylated oligonucleotide loaded ….

As a reminder, the pKd is the negative decadic logarithm of the Kd, by convention in mol/L.

pKd: −log10 of the molar value.

Take “CGCCGGTTATAGGTTTGCGCGTCTTGCTGGGCGATAGGACGTGGGATATCTTTTTGATATCCCACGTCCTATCGCCCAGCAAGACGCGCAAACCTATAACCGGCG (double strand) [Complementary (GG PAM)]”: the pKd is 7.00 in data set [1] (BLI buffer: SEC buffer (composition in Supplementary Table II, not in material) + 0.1 uM BSA + 0.01% Triton X-100, 100 nM biotinylated oligonucleotide loaded …) and 7.33 in data set [2]. Besides, the binding signal in data set [1] (BLI buffer: SEC buffer (composition in Supplementary Table II, not in material) + 0.1 uM BSA + 0.01% Triton X-100, 100 nM biotinylated oligonucleotide loaded …, scale: fold reduction of equilibrium binding level) was found to be 5.

For the origin of these results see article PMC7266957.
